Experimental data reported in the DeepSol protein solubility set.

Experiment: soluble on expression in E. coli; label from the status in PepcDB or PDB records

Sequence | soluble on expression in E. coli
MQREDDPDAYDVIWASNGTLYFTPGFKYNTPPYPANQRVLATTDNIALTNYLRQEYNKLKESEGTPTLNDIINGFGFCYNDSSNGAGLDGTYLTVSGMLDNKYRLQLLGQYNGSNWLAYRTRNGDEQSWNPWHKVLTDNINAAISARHQYTSSSYPQIYGNGILQLGGDSRNEYGVVLRSNGTDEANAFRPSVNAGTTGHLYLGVANQKWRAVFAQNGTIQTSDRNAKHDITDLDPEKITAFIMGLKPSSYVFNDADSGRTHWGLISQDIEELFPQLGMTSMDFAGFIKSPKTEDYYEDVPETVTDEETGEEKTVTRKELKTRTVEGEYIYSLRYDEFIAPLICMVQRQQRQIEYLERRLSASESKEEAKLEHHHHHH | soluble
MQRIPCVLMRGGTSKGPFFHAWDLPANVVERDELLINLMGSGHELEIDGIGGGSPQTSKVAIISPSLHADADVDYLFVQVMVAQRRVDTAPNCGNMLCAVGPFAIEQGLVKGQEGKTLVRIRNLNTGTFVNSLVETPGGIVRYEGRTAIDGVPGTAAPVHLTFLDAVGSKTGKLFPTGKAQDVIDGVPVTCIDMAMPMMVVEASQLGVSGSETPAQLDANSALLERLEALRLKAGKAMGLGDVSGMVIPKPVLVSKPRYDGTLQVRYFMPHNCHRALAITGAVGLATACVSPGTVIADLLGEGAQQLAQVRLEHPSGGIDVALTRSGAEGQTIQASVVRTARRLFSGFVYAPTFRRLAGLEHHHHHH | soluble
MQRMNFSSLIETFAVDFQLVLPSVEGAGKYIHGEWFPTNEEPKTVSGAIIPYDNRTIYQSGGTLTSSDRQLAYVGSIPLGSKIIDMGKEYKVESEEPYAEHYADVNLYRLKAVTNNAAN | not soluble
MQRRGQLSRRLVNSADRDPSDENSLSRAPAPACTSRGTHVVETTSLKRHSKVLRSQDASGTAESVNSQTPDDEVDHTLWTLVREVSDAEAAFWALRNDSRLLGFVLRSQLLALVHDDSSVTDFLEAAQQPTDVGDVQAEFILCWVPVPGGPAILWRADYQRLIEEQVARRLSELEDPARKAALWGTTREQVERDTHIRAADGSCWLRTLPCPPSVIRALTQGQKALVQQVKRMGRYGRLPLHRAELLRLSRTCFSARFHILDAVGCGTLALDAQNTLSKEPYLCLPEVRTTNIVDSGEIGF | not soluble
MQRYFVEEKYVNETSIRIVGDDVHHIARVMRMSAGDHIYCCVNGKTAVCSIDEITSEFINTAIVEWVEASSELPVFVTIASGLPKGDKLELIFQKGTELGAAAFLPFQASRSIVKWDAKKADKKVERLRKIVKEAAEQSHRSEIPEVHAPASFKQLLSMSGEYDTCLVAYEEEAKQGEKSNFAKALTTMKPGQKLLIVFGPEGGLAEEEITALREHKFVPCSLGPKNFKNRNGAVIRVKCCFVSF | not soluble
MQRYKLPVSVLVVIYTADLQVLLLERADHPGYWQSVTGSQDPGETLLQTAVREVREETGLNTDDYVLSDWQIQNRYEIFEEWNWRYPPGTTHNTEHVFGLELPKTIPAVVSSREHLGYVWLPWREAAEKVFSSSNACAIRMLASKRKSENSR | not soluble
MQSAYSFLPQVIAHRGSSGQAPENTLASLHLAGQQGIKWVEIDVMLSGDGIPVIFHDDYLSRTTDGDGLIYKTPLAELKQLDAGSWKGQEYQQETIPTLLEAIEVISQYGMGLNLELKPCEGLEEETIAASVEVLKQHWPQDLPLLFSSFNYFALVSAKALWPEIARGYNVSAIPSAWQERLEHLDCAGLHIHQSFFDVQQVSDIKAAGYKVLAFTINDESLALKLYNQGLDAVFSDYPQKIQSAIDSHIN | soluble
MQSVDVAIVGGGMVGLAVACGLQGSGLRVAVLDHVVPQPLANDASPQLRVSAINAASEKLLTRLGVWSNIVARRASCYHGMEVRDKDSFGRITFDDASMGYSHLGHIVENSVIHYALWQKAQQAADITLMAPAELQQVAWGENDAFLTLKDGAMLTARLVIAADGANSWLRNKADIPLTFWDYRHHALVATIRTEEPHGAVARQVFHGEGILAFLPLSDPHLCSIVWSLSPQDAERMQQSGDEAFNQALTIAFDNRLGLCRLESERQVFPLTGRYARQFAAHRLALVGDAAHTIHPLAGQGVNLGFMDAAELVDNLRRLQRQGKDIGQHLYLRRYERSRKHSAAMMLAGMQGFRDLFAGENPAKKLLRDIGLKLADTLPGVKPQLLRQAMGLNDLPQWLRLEHHHHHH | not soluble
MQTVGVHSIVQQLHRNSIQFTDGYEVKEDIGVGSYSVCKRCIHKATNMEFAVKIIDKSKRDPTEEIEILLRYGQHPNIITLKDVYDDGKYVYVVTELMKGGELLDKILRQKFFSEREASAVLFTITKTVEYLHAQGVVHRDLKPSNILYVDESGNPESIRICDFGFAKQLRAENGLLMTPCYTANFVAPEVLERQGYDAACDIWSLGVLLYTMLTGYTPFANGPDDTPEEILARIGSGKFSLSGGYWNSVSDTAKDLVSKMLHVDPHQRLTAALVLRHPWIVHWDQLPQYQLNRQDAPHLVKGAMAATYSALNRNQSPVLEPVGRSTLAQRRGIKKITSTAL | soluble
MQVDYQQLNGIALAYLGDAVYEPFIRQHLIESGFTKATKLHHHATHYVSAKAQAALIERMQAEEVLTPTEVDVFKRGRNAKSHTSAKHTDVVTYRISTGFEAVFGYLQLTQQADRIAELAQWCIKQVDEGRVSSVKLEHHHHHH | soluble
MQVIVGHSSTRLPENNENGHTHKWTLFVKPGNRDYDEFPDNKLIQKVKFEIHESFAQPVRFVTKPPFKITETGFASFTTLVTIFLNLPNEKPRTIPYELTLFTGDQDVQLETQKLVVQKDVPPAYLELIKKYARTKKRKASLISNDEKSPSRKMHKITPVKEEESSQKMSKSKEKGVPIPKIDIEIEKASPKKEKKEKVKSPEELTRRLNECTDSHVIYKASEYLLTLPDTKLSQTTLKLSFDLSRCDSTTLMDIGRILKGKKAKK | not soluble
MQVKILDTTLRDGEQTPGVSLSVEQKVMIAEALDNLGVDIIEAGTAIASEGDFQAIKEISQRGLNAEICSFARIKREDIDAAADAGAESIFMVAPSSDIHINAKFPGKDRDYVIEKSVEAIEYAKERGLIVEFGAEDASRADLDFVIQLFKRAEEAKADRITFADTVGVLSPEKMEEIVRKIKAKVKLPLAIHCHDDFGLATANTIFGIKAGAEEFHGTINGLGERAGNAAIEEVVIALEYLYGIKTKIKKERLYNTSKLVEKLSRVVVPPNKPIVGDNAFTHESGIHTSALFRDAKSYEPISPEVVGRKRVIVLGKHAGRASVEAIMNELGYKATPEQMKEILARIKEIGDKGKRVTDADVRTIIETVLQIKREKKVKLEDLAIFSGKNVMPMASVKLKIDGQERIEAAVGLGPVDAAINAIRRAIKEFADIKLVSYHVDAITGGTDALVDVVVQLKKDNKIVTARGARTDIIMASVEAFIEGINMLF | not soluble
MQVKLGFTEHSFNLIVSSTSMFKNLLASVGIGAAKVDTRLFNNSVIPGGILEGEVYIRGGDVAQDIQDIYLKLATEYQREVDDSTVTEECVMVNYRLLEHLTIQPKEEVVIPFSLNLPDEMPLTFGHIPVYVRTGLDIKSAINPRDRDYLEVRTHPLMQRVLLAIEHLGFHLHKVDCEYTHYFGGAYPFVQELEFRPTGKYRHSLDELEVVFRLTADQLEVLLEIDKRARGWKGWLEEAFDIDERYARLIVKQSDLYETDVEALIDQIIQSHLS | not soluble
MQVNIILLAAGKGQRFQSSSPNKIGCATIKQLARINDKPLIVHSIDKLQPLLKNAYVHNFFVTLGANKNAIQTVLPQDISVIASQHWAEGMGHTLAESVHSIKATSSHVLVALADQALITTEHYQELLSASKEQPNKIIATLCEGQLMAPAIFPEKYFPLLVKIQGDKGAGKLLLQHAKKADAITCEDAKIDIDTFSDLERVRQHLEYALQDNQQSSL | not soluble
MQVSVRDNNVDQALRALKKKLQREGVFREMKLKQHFEKPSEKKAREKAEAIRRARKLARKKAQREGMLLEHHHHHH | not soluble
MQWRRCKVITRDFLMNADCKTAFGAIEESLLWSAEQRAASLAATLACRPDEGPVWIFGYGSLMWNPALEFTESCTGTLVGWHRAFCLRLTAGRGTAHQPGRMLALKEGGRTTGVAYRLPEETLEQELTLLWKREMITGCYLPTWCQLDLDDGRTVNAIVFIMDPRHPEYESDTRAQVIAPLIAAASGPLGTNAQYLFSLEQELIKLGMQDDGLNDLLVSVKKLLAENYPDGVLRPGFALEHHHHHH | not soluble
